This assay deals with nucleosomes decorated with both H3KC4me3 and H3K9ac or H3K14ac. Kind of assay: pull-down; 130 pmol recombinant nucleosome (biotinylated 601 Widom DNA, weak TATA) on magnetic streptavidin beads, 500 µg HeLa nuclear extract, 2–3 hours at 4°C; 20 mM HEPES pH 7.5, 150 mM NaCl, 0.2 mM EDTA, 20% glycerol, 0.1% NP-40, 1 mM DTT; no competitor DNA; immunoblot of eluted proteins. For orientation: A western blot detects proteins with antibodies after separation by electrophoresis.

For the substance “TFIID complex (from UniProt P21675 1-1893; Q6P1X5 1-1199; Q5VWG9 1-929; O00268 1-1085; Q15542 1-800; P49848 1-677; Q15545 1-349; Q7Z7C8 1-310; Q16594 1-264; Q12962 1-218; Q15544 1-211; Q16514 1-161; Q15543 1-124; P20226 1-339)”, the fold binding compared to H3KC4me3 alone fell in the range of 1.2 to 1.4 fold.

Source of the values: article PMC3770614.
